# Positions of bridges follow the written chain, without caps; N, C: chain ends. No end group written: not given here.
# Assays:
# human C1q (human) [1] = target: human C1q (human) (UniProt P02745); experiment: reverse ELISA: PAP on C1q-coated plate, no inhibitor
# FcγIII [2] = experiment: reverse ELISA: PAP on FcγIII-coated plate, no inhibitor
# FcγIIa [3] = experiment: reverse ELISA: PAP on FcγIIa-coated plate, no inhibitor
# FcγIIb [4] = experiment: reverse ELISA: PAP on FcγIIb-coated plate, no inhibitor
# [5] = target: myelin basic protein (MBP, Sigma); experiment: reverse ELISA: rabbit PAP on MBP-coated plate, no inhibitor
# human C1q (human) [6] = target: human C1q (human) (UniProt P02745); experiment: reverse ELISA: rabbit PAP on C1q-coated plate, no inhibitor
# FcγIII [7] = experiment: reverse ELISA: rabbit PAP on FcγIII-coated plate, no inhibitor
# FcγIIa [8] = experiment: reverse ELISA: rabbit PAP on FcγIIa-coated plate, no inhibitor
# FcγIIb [9] = experiment: reverse ELISA: rabbit PAP on FcγIIb-coated plate, no inhibitor
# Histone (Sigma) [10] = experiment: reverse ELISA: rabbit PAP on histone-coated plate, no inhibitor
# whole human IgG4 = experiment: reverse ELISA: immune complexes on IgG4-coated plate, no inhibitor
# [11] = target: myelin basic protein (MBP, Sigma); experiment: reverse ELISA: binding of MBP to IgG PAP immune complexes, no inhibitor
# Histone (Sigma) [12] = experiment: reverse ELISA: binding of histones to IgG PAP immune complexes, no inhibitor
# [13] = target: peroxidase-anti-peroxidase (PAP) immune complex (preformed immune complex of peroxidase and anti-peroxidase IgG); experiment: reverse ELISA, competition: soluble MBP pre-incubated with rabbit PAP, then MBP-coated plate; lower = more inhibition
# [14] = target: peroxidase-anti-peroxidase (PAP) immune complex (preformed immune complex of peroxidase and anti-peroxidase IgG); experiment: reverse ELISA, competition: soluble histone pre-incubated with rabbit PAP, then histone-coated plate; lower = more inhibition
# [15] = target: peroxidase-anti-peroxidase (PAP) immune complex (preformed immune complex of peroxidase and anti-peroxidase IgG); experiment: reverse ELISA, competition: pre-incubated with PAP, then RF-coated plate (competitor: RF); lower = more inhibition
# [16] = target: peroxidase-anti-peroxidase (PAP) immune complex (preformed immune complex of peroxidase and anti-peroxidase IgG); experiment: reverse ELISA, competition: peptide with immune complexes, IgG4-coated plate (competitor: IgG4); lower = more inhibition
# [17] = target: peroxidase-anti-peroxidase (PAP) immune complex (preformed immune complex of peroxidase and anti-peroxidase IgG); experiment: reverse ELISA, competition: pre-incubated with PAP, then FcγIII-coated plate (competitor: FcγIII); lower = more inhibition
# [18] = target: peroxidase-anti-peroxidase (PAP) immune complex (preformed immune complex of peroxidase and anti-peroxidase IgG); experiment: reverse ELISA, competition: pre-incubated with PAP, then FcγIIa-coated plate (competitor: FcγIIa); lower = more inhibition
# [19] = target: peroxidase-anti-peroxidase (PAP) immune complex (preformed immune complex of peroxidase and anti-peroxidase IgG); experiment: reverse ELISA, competition: pre-incubated with PAP, then FcγIIb-coated plate (competitor: FcγIIb); lower = more inhibition
# [20] = target: peroxidase-anti-peroxidase (PAP) immune complex (preformed immune complex of peroxidase and anti-peroxidase IgG); experiment: reverse ELISA, competition: pre-incubated with rabbit PAP, then MBP-coated plate (competitor: MBP); lower = more inhibition
# [21] = target: peroxidase-anti-peroxidase (PAP) immune complex (preformed immune complex of peroxidase and anti-peroxidase IgG); experiment: reverse ELISA, competition: pre-incubated with rabbit PAP, then histone-coated plate (competitor: histone); lower = more inhibition
# [22] = target: peroxidase-anti-peroxidase (PAP) immune complex (preformed immune complex of peroxidase and anti-peroxidase IgG); experiment: reverse ELISA, competition: pre-incubated with PAP, then C1q-coated plate (competitor: C1q); OD = PAP bound, lower = more inhibition
# [23] = target: human monomeric IgG (Research Diagnostics); experiment: RF test, competition: peptide pre-incubated with human monomeric IgG, washed, then 200 I.U. RF (competitor); OD = RF bound, lower = more inhibition
# [24] = target: peroxidase-anti-peroxidase (PAP) immune complex (preformed immune complex of peroxidase and anti-peroxidase IgG); experiment: reverse ELISA, competition: pre-incubated with rabbit PAP, then RF-coated plate (competitor: RF); lower = more inhibition
# [25] = target: peroxidase-anti-peroxidase (PAP) immune complex (preformed immune complex of peroxidase and anti-peroxidase IgG); experiment: reverse ELISA, competition: pre-incubated with rabbit PAP, then C1q-coated plate (competitor: C1q); lower = more inhibition
# [26] = target: peroxidase-anti-peroxidase (PAP) immune complex (preformed immune complex of peroxidase and anti-peroxidase IgG); experiment: reverse ELISA, competition: pre-incubated with rabbit PAP, then FcγIII-coated plate (competitor: FcγIII); lower = more inhibition
# [27] = target: peroxidase-anti-peroxidase (PAP) immune complex (preformed immune complex of peroxidase and anti-peroxidase IgG); experiment: reverse ELISA, competition: pre-incubated with rabbit PAP, then FcγIIa-coated plate (competitor: FcγIIa); lower = more inhibition
# [28] = target: peroxidase-anti-peroxidase (PAP) immune complex (preformed immune complex of peroxidase and anti-peroxidase IgG); experiment: reverse ELISA, competition: pre-incubated with rabbit PAP, then FcγIIb-coated plate (competitor: FcγIIb); lower = more inhibition
# [29] = target: human monomeric IgG (Research Diagnostics); experiment: RF test, competition: peptide pre-incubated 1 hour with human monomeric IgG, washed, then 200 I.U. RF (competitor); OD = RF bound, lower = more inhibition
# Sequence of FcγIIb (P31994 43-217): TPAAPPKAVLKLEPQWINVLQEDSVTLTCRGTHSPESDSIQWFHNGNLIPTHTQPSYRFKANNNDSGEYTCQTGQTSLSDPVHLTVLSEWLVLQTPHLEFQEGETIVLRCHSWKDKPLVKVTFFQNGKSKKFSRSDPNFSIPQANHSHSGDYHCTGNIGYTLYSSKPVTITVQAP
# Sequence of human C1q (human) (P02745 23-245 limits assumed, chain 1 of 3): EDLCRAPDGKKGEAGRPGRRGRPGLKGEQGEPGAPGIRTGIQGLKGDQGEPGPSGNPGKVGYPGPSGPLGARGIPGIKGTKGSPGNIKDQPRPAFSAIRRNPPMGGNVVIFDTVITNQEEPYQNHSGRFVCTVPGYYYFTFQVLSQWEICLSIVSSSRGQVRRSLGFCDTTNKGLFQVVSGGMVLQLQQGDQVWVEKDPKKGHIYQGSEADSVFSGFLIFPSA
# Sequence of human C1q (human) (P02746 28-253 limits assumed, chain 2 of 3, further chain): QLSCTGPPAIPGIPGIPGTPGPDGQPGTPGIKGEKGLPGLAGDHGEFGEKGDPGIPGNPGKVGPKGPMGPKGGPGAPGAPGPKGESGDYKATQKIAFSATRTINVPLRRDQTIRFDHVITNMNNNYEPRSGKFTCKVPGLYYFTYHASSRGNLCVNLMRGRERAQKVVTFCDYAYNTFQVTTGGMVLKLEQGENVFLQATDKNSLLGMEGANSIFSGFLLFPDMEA
# Sequence of human C1q (human) (P02747 29-245 limits assumed, chain 3 of 3, further chain): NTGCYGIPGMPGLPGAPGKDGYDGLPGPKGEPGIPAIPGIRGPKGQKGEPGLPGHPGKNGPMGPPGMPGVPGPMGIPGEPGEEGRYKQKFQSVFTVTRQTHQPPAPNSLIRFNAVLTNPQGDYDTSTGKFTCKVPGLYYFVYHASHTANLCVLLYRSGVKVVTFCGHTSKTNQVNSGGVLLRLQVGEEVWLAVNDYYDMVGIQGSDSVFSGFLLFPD
# Sequence of FcγIIa (P12318 34-217): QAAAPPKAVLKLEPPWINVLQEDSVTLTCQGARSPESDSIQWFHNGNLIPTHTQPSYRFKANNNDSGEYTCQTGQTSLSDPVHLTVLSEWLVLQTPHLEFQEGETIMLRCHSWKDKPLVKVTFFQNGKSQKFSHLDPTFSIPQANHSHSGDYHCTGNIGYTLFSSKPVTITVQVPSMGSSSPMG
Molecule,OD 405 nm [15] [OD],OD 405 nm [16] [OD],OD 450 nm [17] [OD],OD 450 nm [18] [OD],OD 450 nm [19] [OD],OD 405 nm [20] [OD],OD 405 nm [21] [OD],OD 405 nm [22] [OD],OD 405 nm [23] [OD],further results
peroxidase-anti-peroxidase (PAP) immune complex (preformed immune complex of peroxidase and anti-peroxidase IgG),,,,,,,,,,OD 405 nm (human C1q (human) [1]): 0.467 OD; OD 450 nm (FcγIII [2]): 3.6 OD; OD 450 nm (FcγIIa [3]): 3.6 OD; OD 450 nm (FcγIIb [4]): 3.6 OD; OD 405 nm [5]: 1.03 OD; OD 405 nm (human C1q (human) [6]): 2.35 OD; OD 405 nm (FcγIII [7]): 1.59 OD; OD 405 nm (FcγIIa [8]): 1.6 OD; OD 405 nm (FcγIIb [9]): 1.39 OD; OD 405 nm (Histone (Sigma) [10]): 1.27 OD; OD 405 nm (whole human IgG4): 0.716 OD; OD 405 nm [11]: 2.34 OD; OD 405 nm (Histone (Sigma) [12]): 2.11 OD
"myelin basic protein (MBP, Sigma)",,,,,,,,,,OD 405 nm [13]: 0.139 OD
Histone (Sigma),,,,,,,,,,OD 405 nm [14]: 0.057 OD
DCAFHLGELVWCT (cyclized by a disulfide bond between the two cysteine residues) [… peptide (SEQ ID NO:3)],,,,,,,,,,OD 405 nm [24]: 0.267 OD; OD 405 nm [25]: 0.859 OD; OD 405 nm [26]: 0.81 OD; OD 405 nm [27]: 0.66 OD; OD 405 nm [28]: 0.51 OD; OD 405 nm [29]: 0.962 OD

# More lines, main results first:
OD 405 nm [15] [OD],OD 405 nm [16] [OD],OD 450 nm [17] [OD],OD 450 nm [18] [OD],OD 450 nm [19] [OD],OD 405 nm [20] [OD],OD 405 nm [21] [OD],OD 405 nm [22] [OD],OD 405 nm [23] [OD],Molecule,further results
0.109,0.096,2.53,2.54,1.95,0.473,0.363,0.193,1.23,DCARHLGELVWCT (disulfide 2-12 (inferred)) [… peptide (SEQ ID NO:4)],
,0.107,,,,,,,,APPDCARHLGELVWCT (cyclized by a disulfide bond between the two cysteine residues) [… peptide (printed in Table 8 with SEQ ID NO:14)],
0.622,0.557,1.34,1.48,1.07,0.706,0.729,,1.4,DCAWHLGELAACT (cyclized by a disulfide bond between the two cysteine residues) [… peptide (SEQ ID NO:42)],
,,2.41,2.43,2.26,,,0.458,1.42,DCAAHLGELAACT (cyclized by a disulfide bond between the two cysteine residues) [… peptide (SEQ ID NO:40)],
0.106,0.129,1.6,1.15,1.21,0.489,0.444,0.205,1.32,PCARHLGELVWCT (disulfide 2-12 (inferred)) [… peptide (SEQ ID NO:41)],
0.152,0.191,3.5,3.4,3.28,0.569,0.359,0.247,1.31,RCARHLGELVWCT (disulfide 2-12 (inferred)) [… peptide (SEQ ID NO:5)],
